Like-named read-outs stand apart in the source and are kept apart here.
Columns and labels:
[1] = molecular target: T1, BMP6 (UniProt P22004 382-513, limits assumed); test: Biacore SPR
T1 sequence (looked up): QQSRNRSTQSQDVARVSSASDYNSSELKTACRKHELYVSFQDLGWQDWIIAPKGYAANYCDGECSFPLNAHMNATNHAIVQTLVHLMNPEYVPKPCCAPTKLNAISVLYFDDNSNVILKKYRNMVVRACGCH
Protocol: (§1) Ligands were injected and allowed to flow over the captured receptor protein.

[2] = molecular target: T2, BMP5 (UniProt P22003 317-454, limits assumed); test: Biacore SPR
T2 sequence (looked up): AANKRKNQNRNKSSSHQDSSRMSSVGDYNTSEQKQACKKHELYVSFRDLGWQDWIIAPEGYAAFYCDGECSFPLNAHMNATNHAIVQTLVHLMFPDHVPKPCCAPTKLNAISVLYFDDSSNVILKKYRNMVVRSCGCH
Protocol: as §1

[3] = molecular target: T1, BMP6; test: Biacore SPR; remark: listed apart in the source
Protocol: as §1

[4] = molecular target: T3, BMP7 (UniProt P18075 293-431); test: Biacore SPR
T3 sequence (looked up): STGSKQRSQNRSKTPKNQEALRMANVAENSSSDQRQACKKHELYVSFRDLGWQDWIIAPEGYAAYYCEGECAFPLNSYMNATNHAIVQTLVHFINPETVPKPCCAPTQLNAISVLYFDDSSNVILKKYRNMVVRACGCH
Protocol: as §1

[5] = molecular target: T2, BMP5; test: Biacore SPR; remark: listed apart in the source
Protocol: as §1

[6] = molecular target: T1, BMP6; test: Biacore SPR; remark: listed apart in the source
Protocol: as §1

[7] = molecular target: T2, BMP5; test: Biacore SPR; remark: listed apart in the source
Protocol: as §1

[8] = molecular target: T3, BMP7; test: Biacore SPR; remark: listed apart in the source
Protocol: as §1

[9] = molecular target: T4, GDF5 (UniProt P43026 382-501); test: Biacore SPR
T4 construct: also called BMP14
T4 sequence (looked up): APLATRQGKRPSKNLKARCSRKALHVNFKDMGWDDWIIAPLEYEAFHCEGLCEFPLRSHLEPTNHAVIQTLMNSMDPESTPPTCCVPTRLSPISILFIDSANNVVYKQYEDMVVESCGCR
Protocol: as §1

[10] = molecular target: T5, GDF6 (UniProt Q6KF10 336-455, limits assumed); test: Biacore SPR
T5 construct: also called BMP13
T5 sequence (looked up): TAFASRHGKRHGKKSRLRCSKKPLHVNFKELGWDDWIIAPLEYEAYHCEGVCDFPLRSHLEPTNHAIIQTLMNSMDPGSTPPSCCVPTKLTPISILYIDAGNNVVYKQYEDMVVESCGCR
Protocol: as §1

[11] = molecular target: T1, BMP6; test: Biacore SPR; remark: listed apart in the source
Protocol: as §1

[12] = molecular target: T4, GDF5; test: Biacore SPR; kinetics indeterminate (transient)
Protocol: as §1

[13] = molecular target: T6, GDF7 (UniProt Q7Z4P5 322-450, limits assumed); test: Biacore SPR; kinetics indeterminate (transient)
T6 construct: also called BMP12
T6 sequence (looked up): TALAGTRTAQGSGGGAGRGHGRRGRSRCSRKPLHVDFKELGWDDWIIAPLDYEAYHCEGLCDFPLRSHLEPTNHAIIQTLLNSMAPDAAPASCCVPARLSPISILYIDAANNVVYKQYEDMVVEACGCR
Protocol: as §1

B1: ActRIIB-Fc homodimer (Fc fusion, UniProt Q13705 19-137, looked up, not shown: a dimerising Fc or GST)
chain: SGRGEAETRECIYYNANWELERTNQSGLERCEGEQDKRLHCYASWRNSSGTIELVKKGCWLDDFNCYDRQECVATEENPQVYFCCCEGNFCNERFTHLPEAGGPEVTYEPPPTAPTLLT
notes: extracellular domain; also called ActRIIB homodimer
Kd [1]: 0.19 nM | koff [1]: 0.0068 s⁻¹ | kon [1]: 3.2e+07 M⁻¹ s⁻¹ | Kd [2]: 2.9 nM | koff [2]: 0.075 s⁻¹ | kon [2]: 2.6e+07 M⁻¹ s⁻¹ | Kd [3]: 0.19 nM | koff [3]: 0.0068 s⁻¹ | kon [3]: 3.5e+07 M⁻¹ s⁻¹ | Kd [4]: 1.6 nM | koff [4]: 0.014 s⁻¹ | kon [4]: 8.8e+06 M⁻¹ s⁻¹ | Kd [5]: 2.9 nM | koff [5]: 0.075 s⁻¹ | kon [5]: 2.6e+07 M⁻¹ s⁻¹ | Kd [6]: 0.16 nM | koff [6]: 0.0039 s⁻¹ | kon [6]: 2.4e+07 M⁻¹ s⁻¹ | Kd [7]: 9.7 nM | koff [7]: 0.037 s⁻¹ | kon [7]: 3.8e+06 M⁻¹ s⁻¹ | Kd [8]: 1.6 nM | koff [8]: 0.014 s⁻¹ | kon [8]: 8.8e+06 M⁻¹ s⁻¹ | Kd [9]: 1.1 nM | koff [9]: 0.0014 s⁻¹ | kon [9]: 1.2e+06 M⁻¹ s⁻¹ | Kd [10]: 39 nM | koff [10]: 0.0057 s⁻¹ | kon [10]: 150000 M⁻¹ s⁻¹ | Kd [11]: 1.1 nM | koff [11]: 0.007 s⁻¹ | kon [11]: 6.4e+06 M⁻¹ s⁻¹ | Kd [12]: > 9.6 nM | Kd [13]: > 12 nM

— patent US20190225669A1 (ACCELERON PHARMA, published 2019)
